A short description of the data set: soluble on expression in E. coli; label from the status in PepcDB or PDB records.
Regarding “MGSDKIHHHHHHMFKRETKDFINIDPLQTGGKLTEEARQALLEWGDGYSVCDFCTTGRLDEIKTPPIHDFIHNQLPKFLGCDVARVTNGAREAKFAVMHSLAKKDAWVVMDENCHYSSYVAAERAGLNIALVPKTDYPDYAITPENFAQTIEETKKRGEVVLALITYPDGNYGNLPDVKKIAKVCSEYDVPLLVNGAYAIGRMPVSLKEIGADFIVGSGHKSMAASGPIGVMGMKEEWAEIVLRRSEKYKNKEVELLGCTARGATIITLMASFPHVRERIKRWDEEVEKARRFAAEMEKLGIKQLGDNPHNHDLMFFHAEVLYEISKKAKGGRFFLYRELKSRKIHGIKPGLTRYFKLSTYGLSDEEVDYVLNAFKEIIEKYS”, the “soluble on expression in E. coli” value was “not soluble”.
Take “MGSDKIHHHHHHMRPAPSIVEVVAAIIIGSDGSFLLARRPEGKPYAGYWEFPGGKVNPEESLLRALKRELLEELGIHVKHAYPWITRTFTYPHARVRLHFYRVVEWHGEPHPHEDQELSWQFADNVSVEPLLPANAPVLRALALPPVYGITNAAEWGPQIAAARIGHALQKGLRLVQLREKGMRSKALDAFAREVTALAHHYGARILVNSGTGNESLCQELDMDGIHFTSADLMNLSKRPDVEWCAASCHNAEELFRAEQLEMDFAVLAPVLPTLSHPDSPVLGWRKLARIIHGSAIPVYALGGLQSEDLAIAWEHGAHGIALMRRIEQVRGTGQKA”: the “soluble on expression in E. coli” value is given as “not soluble”.
As for “MDYSVANAGFERFQSAMEKDVERMRDFQERMSQVRGKGEAAEGRITAEVDSENGLAVLDIDPRVLRMPVEDISTEIRAAVNAAFKDFQDKTGSLAAELYGAQGEDPEKILADPSALLAKIEELGNNFAVQLQDMARELSVQQQRAKDIAGRMTPPRDLD”, the entry is “not soluble”.
As for “MSLENYLEEELIIGGIEINYLYVCKTKLWYFVRGITMEQESDFVDLGKFLHEKSYFGEEKEVQIGSIKIDFIKKRDVIEIHEVKRGKQMEKAHIMQVLYYIYYLNSLGIKSKAILHYPKLKEIKEIELKENNKEEIKRAIKEIEYIKSLKEPPEPIYQKICKNCAYYELCFIEGHHHHHH”, the “soluble on expression in E. coli” value is “soluble”.
In the case of “MDCHKLRRLLKKEEGPKLDFKAEYDLSTESGKKELTKDVIAIANSRGGRGYIILGIEDKTKRVLGIEPKRYTEEQIQQIIYNRCDPPVPISVDFVGLDGKTVGVITVYRSSHKPHQMIQNGAFYIRRGSTTDIARRSEIANLFQENGLMTYETVILKNVGMEELDFGLIKDYFKTLNVFSDNPSELILEALGIIGQKSDTEEYHPTIGGLLLFGKNPSLYLPHVYVKVVYNGEARLFFGNILKMLDDVSDYMRSIIKVEGYPFNALEEVIANALVHRDYLDVSKGIVITVTDKNIEISNPGALIAGNSVYSFSREINPDRRNPWLYQRLLTLDPKKRFMKSGVGLKRVKKSFTGIGPVKFINIGSQNLFKVLLPIGKKQESTSDTSGLF”, the “soluble on expression in E. coli” value was “soluble”.
As for “MNPDKTVLSCHNPEWRGERPAPSLIARCAQLAMLLEVSASPKPGNVDREHNYPDTCFEHFVASSVAVYPVFELAAKSTGRIGQLLRSAVYESSAWQQGGNTHFGAFLLLIPLAMAAGEISREQGEQPGCGKTFFRIEAEEFENLASHAHAFVRETDCEDAVEFYRAFGHAGVRVNSVEEFDLEDPEATSDLRNQNITLYSLMEIAKGYDLIANEWTSGFGRCLEGAKIILDFMDARNCREEALAGGSVSICSGTGINEAVVYTFLKLLSKHRDTFIQTKFDAETADYVSSRAGEVLSGWEISGKKAGDFASILPRIQEFDSELLDKRINPGSTADIIIAALFIALLGGLRF”, the entry is “not soluble”.
As for “MSLKTLNIYLMRHGKVDAAPGLHGQTDLKVKEAEQQRIAMAWKTKGYDVAGIISSPLSRCHDLAQILAEQQLLPMTTEDDLQEMDFGDFDGMPFDLLTEHWKKLDAFWQSPAHHSLPNAESLSTFSQRVSRAWSQIINDINDNLLIVTHGGVIRIILAHVLGVDWRNPQWYSTLAIGNASVTHITITIDDQIYASVRSIGVPLVEEGHHHHHH”, the entry is “soluble”; as for “SMQELFNNLMELCKDSQRKFFYSDDVSASGRTYRIFSYNYASYSDWLLPDALECRGIMFEMDGEKPVRIASRPMEKFFNLNENPFTMNIDLNDVDYILTKEDGSLVSTYLDGDEILFKSKGSIKSEQALMANGILMNINHHRLRDRLKELAEDGFTANFEFVAPTNRIVLAYQEMKIILLNVRENETGEYISYDDIYKDATLRPYLVERYEIDSPKWIEEAKNAENIEGYVAVMKDGSHFKIKSDWYVSLHSTKSSLDNPEKLFKTIIDGASDDLKAMYADDEYSYRKIEAFETTYLKYLDRALFLVLDCHNKHCGKDRKTYAMEAQGVAKGAGMDHLFGIIMSLYQGYDSQEKVMCEIEQNFLKNYKKFIPEGY”, “soluble”; as for “MAHHHHHHMEKNQNDKSNKNDIIHMNDKSGNYDKNNINNFIDKNDEHDMSDILHKINNEEKKYEEIKSYSECLELLYKTHALKLGLDNPKKLNESFGHPCDKYKTIHIAGTNGKGSVCYKIYTCLKIKKFKVGLFSSPHIFSLRERIIVNDEPISEKELIHLVNEVLNKAKKLYINPSFFEIITLVAFLHFLNKKVDYAIIETGIGGRLDATNILTKPEVIVITSIGYDHLNILGDNLPIICNEKIGIFKKDANVVIGPSVAIYKNVFDKAKELNCTIHTVVPEPRGERYNEENSRIALRTLEILNISIDYFLKSIIPIKPPLRIQYLATEQIQHIKKKFSPDNLEHNVQYPLAVILDVGHNETAIDRLCTDINYFHKGQNIRICISITKPRNLSVFHPFIAQFGDTLKDIFYLPSLNERTYDFEEIVEMLNNEEEIKNEIKELILSSSKKVGKWLAHEKQGNINEEDALKLYKRGCIPLIIKNAFLECCKDNSILLVCGTFFVFDEVLNVFDIHSDMQDTIFMNEPSLV”, “soluble”.
On to “GMQKTAFIWDLDGTLLDSYEAILSGIEETFAQFSIPYDKEKVREFIFKYSVQDLLVRVAEDRNLDVEVLNQVRAQSLAEKNAQVVLMPGAREVLAWADESGIQQFIYTHKGNNAFTILKDLGVESYFTEILTSQSGFVRKPSPEAATYLLDKYQLNSDNTYYIGDRTLDVEFAQNSGIQSINFLESTYEGNHRIQALADISRIFETK”, for which the “soluble on expression in E. coli” value was “soluble”.
As for “MRAFKAHLRGLSPYPYKKEEAPVKLDQNESPFDLPGALKEEALGRLRAIPWNRYPEIHAESLRKRLSALLDWPEEGIVLAPGSNLLILALSLAAEEVLDLRPSFPHYAHAAKVAGTPYRAVPLGEGFSLDLKALLAAFRGGVLFLPNPHAPTGALFPEEALRALAERAKEVGGLLVVDEAYREFAGTDFRFLARENPHVALLRTFSKAFSLGGVRAGYLLGSPEVAGVVREVLPPFVLPAHTGAVLEVVLENPGYVEKVVEEVVAQRERVYRELLAHPTWRPYPSRTNFLLVRTPDAEEAFRHLLSQGVLVRRQDRYPGLAGCLRVTVGRREEMDAFLRAAFGVAYA”, the entry is “soluble”.
As for “MGSDKIHHHHHHMRALATWQDKCIDSQLLVASLVGLFKQRDLDCDKLLRGTGIFITDIRKPDHLISPKQLARLLDNALAQWPNGDLSFLLGQLWFPSQSGVLTSGMFCARDVKELIYFWHKYHWLTQPWLQTWRWQGEHEWHFLLSLDLGMHRHKQFFIELSLSSFMACFKQLLGQAWRGSICFPYPAPDNLAHYYKYFGMDLRFDAPLCRISMAKNLLRQPSLFANQSLLYSQPENVDTHCAEDAQLPSASQSCIHGEAASPALDIQPLQLPLRPQLNMAKAARQALFAQEFRLGLAAGIRLKLMRRTLSLPEMAQILEISPATLKRRLGEMGLNYGQLADESRLIRALYFLAEPEQDAHSIASSLSFSDASNFRRSFKRWTGQLPGYFRYWLA”, the entry is “not soluble”; as for “SLSEVEIEEVRLNPDEPQYTMDGLDGRRFDEQGYLKEHLSSKGAKQFPESSDIHFDSPHLVFFQEGRLLYEVGSDEAVYHTENKQVLFKNNVVLTKTADGKRQAGKVEAEKLHVDTESQYAQTDTPVSFQYGASHGQAGGMTYDHKTGMLNFSSKVKATIYDTKDM”, “not soluble”; as for “MVTKTITEQRAEVRIFAGNDPAHTATGSSGISSPTPALTPLMLDEATGKLVVWDGQKAGSAVGILVLPLEGTETALTYYKSGTFATEAIHWPESVDEHKKANAFAGSALSHAALP”, “soluble”.
As for “MNKLYIDSFVEKKLTAGVQLLDEKDFSNIKEKNQLVQLVTKSNRPIGTAYISKQNKGIGWYLGPEKIDLSISYFVSLFSVAKAKRQDFAQSDETNAYRLFNQEGDGFGGVTIDLYKDFAVFSWYNAFVYDKKEMIMEAFQQVFPEVKGAYEKCRFKGPDTETAHLYGELAQETFSILENGIAYQVFLNEGLMTGIFLDQHDVRRALVDGLAMGKSLLNLFSYTAAFSVAAAMGGAIETTSVDLAKRSRELSLAHFEHNQLNLASHHFVVMDVFEYFKYAKRKKLIFDVIVIDPPSFARNKKQTFSVSRDYHKLITEALDILSPKGTIIASTNAANMTVSQFKKQIIKGFGSRRPESMTLQQLPSDFTINKADERSNYLKVFTIKVRE”, the entry is “not soluble”; as for “MKLDKYTVGKRYGKALFELAVEKNQAEAIYQELLTLREVYHQVPGIGDILSDDRLEPYEKDSIMEKLVTGFSEMMQNFLRVVYEYRRMYDLLLMIDEYERRYDEHQGLILGSVTTAIPLSKEQHQAMEEKAAQLLGYEQAHLVNLIDPSIVGGVVIEANHQVIDGSIRKQLEHMQQKLLK”, “not soluble”; as for “GAMDGNMKEVTQLPEPQTASLAELQQMKLFLKLLKKQEKELKELERKGSKRREELLQKYSVLFLEPVYPRGLDSQVVELKERLEMELIHLGEEYHDGIRRRKEQHATEQTAKITELAREKQIAELKALKESSESNIKDIKKKLEAKRLDRIQVMMRSTSDKAAQERLKKEINNSHIQEVVQTIKLLTEKTARYQQKLEEKQAENLRAIQEKEGQLQQEAVAEYEEKLKTLTVEVQEMVKNYMKEVFPDGPE”, “soluble”.
For the sequence “MFALVLFVCYLDGGCEDIVVDVYNTEQQCLYSMSDQRIRQGGCFPIEDFIDGFWRPAQEYGDFLEHHHHHH”, the “soluble on expression in E. coli” value is given as “soluble”.
As for “MGHHHHHHGGHMSLENLNSYIKGHFADSILVKEQILKDENLITLIKNASLEVIKAYKNGNKTLLAGNGGSAADAQHIAGEFVSRFYFDRPGIASIALTTDTSILTAIGNDYGYENLFARQVQAQGVKGDVFIGISTSGNSKNILKALEFCKQKEIISIGLSGASGGAMNELCDYCIKVPSTCTPRIQEAHILIGHIICAIVEEELFGKGFSCKQEGGS”, the entry is “soluble”.
As for “MSSRPPFGIVKPSKPTGNPSSGSSELDSTAQPPQERGTDLQRASSGSDVHGHPSPGSQSHNLTSAQSGGRNAHKDLHERHVHPSQGYQRHGSKAPAHGHPSSQGARRSQLKLSNFPKLLANLMQDTKATQDFNSKYHSDFKKSKNSLITGESIFKFSHGIINFFFGRTSASCASNQDTLQPTASTMSDGEPEEDKVKLCGNRLEVGVTDNLAGTQRRKEQQQLQGAQAKKQQAPQRVVNRKANHQKLSRKRRYAPYKDDVIGAHGFFNNMR”, the entry is “not soluble”.
As for “MQPGGDMSALLAQAQQMQQKLLEAQQQLANSEVHGQAGGGLVKVVVKGSGEVIGVTIDPKVVDPDDIETLQDLIVGAMRDASQQVTKMAQERLGALAGAMRPPAPPAAPPGAPGMPGMPGMPGAPGAPPVPGI”, the entry is “not soluble”; as for “SLLPQAVTQFEELVGMAEALLKGGGTMSTSASTLWRATNNSSPDSFASTCSNSNSNSSSPVSLKPEEEHQTDEKQFQIEKWQIARCNKSKPQKFINDLMQVLYTNEYMATHSLTGAKSSTSRDKAVKPAMNQNEVQEIIGVTKQLFPNTDDVSIRRMIGQKLNNCTKKPNLSKNLNSQDIK”, “soluble”.
